Measured values: the Immune Epitope Database (IEDB)

What was measured:
[1] = target: HLA-B*40:01; assay: IEDB peptide-MHC binding, purified MHC/competitive/radioactivity; filed as Kd, often an IC50 or EC50 that approximates it; ≥ and ≤ were set here for values at or beyond the usual limits of such assays
[2] = target: HLA-B*44:03; assay: as above
[3] = target: HLA-B*35:01; assay: as above
[4] = target: HLA-B*53:01; assay: as above
[5] = target: HLA-B*51:01; assay: IEDB peptide-MHC binding, purified MHC/competitive/fluorescence; filed as Kd, often an IC50 or EC50 that approximates it; ≥ and ≤ were set here for values at or beyond the usual limits of such assays; conditions: source organism: Entamoeba histolytica HM-1:IMSS
[6] = target: HLA-A*01:01; assay: IEDB peptide-MHC binding, purified MHC/competitive/radioactivity; filed as Kd, often an IC50 or EC50 that approximates it; ≥ and ≤ were set here for values at or beyond the usual limits of such assays
[7] = target: HLA-A*23:01; assay: as above
[8] = target: HLA-A*24:02; assay: as above
[9] = target: HLA-A*26:01; assay: as above
[10] = target: HLA-A*29:02; assay: as above
[11] = target: HLA-A*30:01; assay: as above
[12] = target: HLA-A*30:02; assay: as above
[13] = target: HLA-A*32:01; assay: as above
[14] = target: HLA-B*15:01; assay: as above
[15] = target: HLA-A*68:01; assay: as above; conditions: source organism: Dengue virus 2 Jamaica/1409/1983
[16] = target: HLA-B*44:02; assay: as above
[17] = target: HLA-A*24:03; assay: IEDB peptide-MHC binding, purified MHC/direct/fluorescence; filed as Kd, often an IC50 or EC50 that approximates it; ≥ and ≤ were set here for values at or beyond the usual limits of such assays; conditions: source organism: Mycobacterium tuberculosis variant bovis
[18] = target: HLA-B*15:01; assay: as above; conditions: source organism: Mammarenavirus lassaense
[19] = target: HLA-B*46:01; assay: as above; conditions: source organism: Mammarenavirus lassaense
[20] = target: HLA-B*07:02; assay: IEDB peptide-MHC binding, purified MHC/competitive/radioactivity; filed as Kd, often an IC50 or EC50 that approximates it; ≥ and ≤ were set here for values at or beyond the usual limits of such assays
[21] = target: HLA-B*51:01; assay: as above
[22] = source organism: Dengue virus 1 Brazil/97-11/1997
[23] = source organism: Dengue virus 3 Martinique/1243/1999
[24] = source organism: Dengue virus 4 Philippines/H241/1956
[25] = source organism: Mammarenavirus machupoense
[26] = source organism: Lassa virus Josiah
[27] = source organism: Dengue virus 2 Jamaica/1409/1983
[28] = source organism: Vaccinia virus WR
[29] = source organism: Vaccinia virus Copenhagen
[30] = source organism: Dengue virus 1 Singapore/S275/1990
[31] = source organism: Lymphocytic choriomeningitis virus (strain Armstrong)

**Q.** With AETQHGTVL as the sequence, how does the Kd [1, 22] read?
**A.** 0.32 nM

**Q.** What about the Kd [2, 22] of the same sequence?
**A.** 52.7 nM

**Q.** APTRVVAAEM was tested. Which Kd [3, 23] did it give?
**A.** 20.3 nM

**Q.** Which Kd [4, 24] does the source give for CPLLVNTEPE here?
**A.** 1650 nM

**Q.** How did the Kd [5] turn out when CPLNQLEQF was run?
**A.** ≥ 20000 nM

**Q.** Which Kd [6, 25] does the source give for CTNFKTQLV here?
**A.** 1150 nM

**Q.** What about the Kd [7, 25] of the same sequence?
**A.** ≥ 77700 nM

**Q.** And the Kd [8, 25]?
**A.** ≥ 77500 nM

**Q.** And the Kd [9, 25]?
**A.** 13200 nM

**Q.** And the Kd [10, 25]?
**A.** 4460 nM

**Q.** What about the Kd [11, 25] of the same sequence?
**A.** 1040 nM

**Q.** And the Kd [12, 25]?
**A.** 2290 nM

**Q.** What about the Kd [13, 25] of the same sequence?
**A.** ≥ 77800 nM

**Q.** With CWLVSNGSY as the sequence, how does the Kd [6, 26] read?
**A.** 13900 nM

**Q.** What about the Kd [9, 26] of the same sequence?
**A.** ≥ 34400 nM

**Q.** And the Kd [10, 26]?
**A.** 543 nM

**Q.** And the Kd [11, 26]?
**A.** 16900 nM

**Q.** And the Kd [12, 26]?
**A.** 6.3 nM

**Q.** And the Kd [13, 26]?
**A.** 18800 nM

**Q.** How did the Kd [6, 26] turn out when DIMGIPYCNY was run?
**A.** ≥ 28900 nM

**Q.** What about the Kd [9, 26] of the same sequence?
**A.** 541 nM

**Q.** What about the Kd [10, 26] of the same sequence?
**A.** 105 nM

**Q.** What about the Kd [11, 26] of the same sequence?
**A.** ≥ 70400 nM

**Q.** What about the Kd [12, 26] of the same sequence?
**A.** 444 nM

**Q.** And the Kd [13, 26]?
**A.** ≥ 69900 nM

**Q.** Which results are given for EPIPMATYGW?
**A.** Kd [9, 22]: ≥ 69700 nM; Kd [4, 22]: 13.2 nM

**Q.** Which Kd [3, 27] does the source give for EPKEGTKKLM here?
**A.** ≥ 54400 nM

**Q.** For ERRYVNVHF, which Kd [14, 28] is on record?
**A.** 7380 nM

**Q.** Which Kd [14, 29] does the source give for FIRMLILNF here?
**A.** 7450 nM

**Q.** Which results are given for FQYSDRRWCF?
**A.** Kd [7, 22]: 272 nM; Kd [8, 22]: 2480 nM; Kd [14, 22]: 3.88 nM

**Q.** How did the Kd [14, 28] turn out when FSHDHIGHG was run?
**A.** 31.9 nM

**Q.** With FTMRLLSPVR as the sequence, how does the Kd [11, 27] read?
**A.** 9070 nM

**Q.** And the Kd [15]?
**A.** 7.73 nM

**Q.** Which results are given for FTTRHRKPTY?
**A.** Kd [6, 24]: ≥ 23600 nM; Kd [11, 24]: 1960 nM

**Q.** How did the Kd [14, 28] turn out when GAIDLCRHF was run?
**A.** 117 nM

**Q.** For GESSPSPTV, which Kd [1, 23] is on record?
**A.** 9.6 nM

**Q.** And the Kd [16, 23]?
**A.** 744 nM

**Q.** With GPGHEEPVPM as the sequence, how does the Kd [3, 23] read?
**A.** 7200 nM

**Q.** With GVYPLSIPAT as the sequence, how does the Kd [11, 30] read?
**A.** 1900 nM

**Q.** For GYAGTLQSL, which Kd [17] is on record?
**A.** 0.9 nM

**Q.** How did the Kd [11, 28] turn out when HAIVINPFV was run?
**A.** 221 nM

**Q.** IIKSSYVFK was tested. Which Kd [11, 28] did it give?
**A.** 10.9 nM

**Q.** IMGIPYCNY was tested. Which Kd [18] did it give?
**A.** 43 nM

**Q.** What about the Kd [19] of the same sequence?
**A.** ≥ 20000 nM

**Q.** Which Kd ([14]; source organism: Dengue virus 1 Nauru/West Pac/1974) does the source give for IMMLKLLTDF here?
**A.** 18.8 nM

**Q.** For IPEGRVIDL, which Kd [20, 23] is on record?
**A.** 140 nM

**Q.** How did the Kd [20, 30] turn out when IPKIYGGPI was run?
**A.** 14.2 nM

**Q.** And the Kd [21, 30]?
**A.** 630 nM

**Q.** IPYDPKFEK was tested. Which Kd [21, 27] did it give?
**A.** 2200 nM

**Q.** IQKETLVTF was tested. Which Kd [7, 27] did it give?
**A.** 40.5 nM

**Q.** What about the Kd [8, 27] of the same sequence?
**A.** 1560 nM

**Q.** And the Kd [14, 27]?
**A.** 1.61 nM

**Q.** ISKTSIACF was tested. Which Kd [14, 29] did it give?
**A.** 10800 nM

**Q.** Which Kd [4, 24] does the source give for ITNELNYVLW here?
**A.** 483 nM

**Q.** Which Kd [11, 22] does the source give for IWGRKSWPLN here?
**A.** 2050 nM

**Q.** KAYLYTEYF was tested. Which Kd [14, 28] did it give?
**A.** 7.64 nM

**Q.** For KEGDQYVYM, which Kd [1, 22] is on record?
**A.** 397 nM

**Q.** KEISNMLNIM was tested. Which Kd [1, 30] did it give?
**A.** 8.34 nM

**Q.** Which results are given for KEISSMLNI?
**A.** Kd [1, 22]: 262 nM; Kd [16, 22]: 38.9 nM; Kd [2, 22]: 76.6 nM

**Q.** Which Kd [14, 28] does the source give for KEYCVECYM here?
**A.** 4620 nM

**Q.** With KIRCEITSF as the sequence, how does the Kd [14, 28] read?
**A.** 4.28 nM

**Q.** With KLITQFETY as the sequence, how does the Kd [12, 23] read?
**A.** 7780 nM

**Q.** What about the Kd [13, 23] of the same sequence?
**A.** 202 nM

**Q.** What about the Kd [14, 23] of the same sequence?
**A.** 20.2 nM

**Q.** With KLRPKWLDA as the sequence, how does the Kd [11, 24] read?
**A.** 32.7 nM

**Q.** KLSHSDYEY was tested. Which Kd [6, 31] did it give?
**A.** 2580 nM

**Q.** And the Kd [9, 31]?
**A.** ≥ 77900 nM

**Q.** And the Kd [10, 31]?
**A.** 1260 nM

**Q.** And the Kd [11, 31]?
**A.** ≥ 24200 nM

**Q.** And the Kd [12, 31]?
**A.** 22.5 nM

**Q.** And the Kd [13, 31]?
**A.** 6390 nM

**Q.** Which Kd [11, 28] does the source give for KYRYGTFLY here?
**A.** 1.07 nM

**Q.** With LALFLAHYI as the sequence, how does the Kd [21, 23] read?
**A.** 342 nM

**Q.** How did the Kd [11, 23] turn out when LARWGTFKK was run?
**A.** 316 nM

**Q.** How did the Kd [1, 27] turn out when LEFFLIVLL was run?
**A.** 123 nM

**Q.** And the Kd [2, 27]?
**A.** 17600 nM
